Data reported in publication PMC2234471 (The Journal of General Physiology, 2003).

Target: purified recombinant vertebrate CaM ( ("vertebrate"), UniProt P0DP23 1-149)
Test: native gel or EMSA

binding result	Binder
binds	SIRAVCVMRFLVSKRKFKESLR [IQ2 peptide of KCNQ2 (508–530)]
binds	AIRAVRILQFRLYKKKFKETLR [IQ2 peptide of KCNQ3 (481–503)]
